Legend:
[1] = target: T1, GAL4 activation domain fusion to HAB1 I383G (Arabidopsis thaliana (Mouse-ear cress), UniProt Q9CAJ0 4-511); assay: Y2H, beta-gal staining
T1 construct: Mutant of the pACT-HAB1 template, which lacks the three N-terminal amino acids of HAB1
T1 sequence: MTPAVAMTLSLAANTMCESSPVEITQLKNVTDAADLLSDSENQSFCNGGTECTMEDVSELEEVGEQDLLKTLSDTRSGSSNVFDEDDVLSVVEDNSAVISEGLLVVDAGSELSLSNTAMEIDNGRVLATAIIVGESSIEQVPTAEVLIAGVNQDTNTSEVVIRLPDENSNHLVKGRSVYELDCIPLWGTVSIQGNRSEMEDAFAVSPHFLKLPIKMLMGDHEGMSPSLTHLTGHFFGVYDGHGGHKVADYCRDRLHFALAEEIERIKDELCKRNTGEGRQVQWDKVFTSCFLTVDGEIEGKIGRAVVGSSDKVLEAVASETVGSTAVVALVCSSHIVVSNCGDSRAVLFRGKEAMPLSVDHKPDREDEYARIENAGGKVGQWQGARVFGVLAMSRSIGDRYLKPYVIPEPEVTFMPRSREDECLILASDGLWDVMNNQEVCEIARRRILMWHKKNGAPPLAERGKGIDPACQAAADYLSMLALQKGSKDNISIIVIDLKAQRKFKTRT

[2] = target: T2, GAL4 activation domain fusion to HAB1 E203D (Arabidopsis thaliana (Mouse-ear cress), UniProt Q9CAJ0 4-511); assay: Y2H, beta-gal staining
T2 construct: Mutant of the pACT-HAB1 template, which lacks the three N-terminal amino acids of HAB1
T2 sequence: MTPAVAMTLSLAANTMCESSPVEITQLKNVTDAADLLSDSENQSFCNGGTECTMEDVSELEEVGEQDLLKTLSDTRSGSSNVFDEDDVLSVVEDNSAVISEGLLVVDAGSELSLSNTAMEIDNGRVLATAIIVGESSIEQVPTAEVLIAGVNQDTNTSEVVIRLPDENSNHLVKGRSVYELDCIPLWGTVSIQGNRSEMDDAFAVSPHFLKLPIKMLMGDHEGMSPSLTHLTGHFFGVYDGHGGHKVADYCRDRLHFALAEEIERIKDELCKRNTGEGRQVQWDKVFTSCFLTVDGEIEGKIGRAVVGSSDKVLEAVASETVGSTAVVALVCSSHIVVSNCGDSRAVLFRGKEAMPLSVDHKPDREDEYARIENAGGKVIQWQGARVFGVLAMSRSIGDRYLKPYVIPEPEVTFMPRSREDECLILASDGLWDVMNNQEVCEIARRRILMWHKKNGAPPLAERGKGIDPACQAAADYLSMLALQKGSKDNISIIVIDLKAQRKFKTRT

B1: GAL4 DNA binding domain fusion to PYR1 (pBD-PYR1), wild type (receptor)
chain: MKLLSSIEQACDICRLKKLKCSKEKPKCAKCLKNNWECRYSPKTKRSPLTRAHLTEVESRLERLEQLFLLIFPREDLDMILKMDSLQDIKALLTGLFVQDNVNKDAVTDRLASVETDMPLTLRQHRISATSSSEESSNKGQRQLTVSMPSELTPEERSELKNSIAEFHTYQLDPGSCSSLHAQRIHAPPELVWSIVRRFDKPQTYKHFIKSCSVEQNFEMRVGCTRDVIVISGLPANTSTERLDILDDERRVTGFSIIGGEHRLTNYKSVTTVHRFEKENRIWTVVLESYVVDMPEGNSEDDTRMFADTVVKLNLQKLATVAEAMARNSGDGSGSQVT
notes: Yeast two-hybrid bait expressed in S. cerevisiae; also called WT
B1: no binding (tested: 10 µM ABA) [1]; no binding (tested: 10 µM ABA) [2].

From patent US20190389914A1 (University of California, published 2019)
